29 sequences from the supplement of paper PMC9170038 can be followed below.

Series [1] relates to MS2 coat protein. Briefly: apparent KD of MS2 coat protein; designed switch direction (-1 OFF switch, 1 ON switch): 1; higher = weaker reporter binding. Particulars: Eterna round: R98. Here is the method: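 RNA-MaP: designed FMN/MS2 RNA switches (84 nt design region) are transcribed on-chip within common flanks and titrated with SNAP-549-labelled MS2 coat protein (about 1-3000 nM) in 100 mM Tris pH 7.5, 80 mM KCl, 4 mM MgCl2, without or with 200 uM FMN. Median apparent KD per design; activation ratio = KD,OFF / KD,ON.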

Series [2] concerns MS2 coat protein. Briefly: apparent KD of MS2 coat protein, switch OFF state (with FMN for OFF switches, without FMN for ON switches); designed switch direction (-1 OFF switch, 1 ON switch): 1; higher = weaker reporter binding. Particulars: FMN input: 0 or 200 uM; Eterna round: R93 (includes R88 designs). An outline of the steps:
(§1)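 Titration buffer: 100 mM Tris-HCl pH 7.5, 80 mM KCl, 4 mM MgCl2, without or with constant ligand. Designed RNA switches transcribed on-chip from Illumina sequencing clusters received SNAP-549-labelled MS2 coat protein in twofold steps from 0.7 or 1.5 nM to 3 µM. Apparent KD is the median per design of fits to normalised cluster binding curves.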

Series [3] deals with MS2 coat protein. Briefly: apparent KD of MS2 coat protein, switch ON state; designed switch direction (-1 OFF switch, 1 ON switch): 1; higher = weaker reporter binding. Particulars: FMN input: 0 or 200 uM; Eterna round: R93 (includes R88 designs). An outline of the steps:
as §1

For the sequence “AAAUAAAAUAUAGGAUAUGGAAACAUGAGGAUCACCCAUGUAAAAUAAAAUAAAUAAUAAUAUAACCAGAAGGAUAAAAUAAAA [LRO001_SS NG 2]”, the “apparent KD of MS2 coat protein” value came out at 40.2 nM in the series on MS2 coat protein [1] (input ligand: FMN 200 uM) and 30.6 nM with MS2 coat protein [1] (input ligand: none).
The like results for “AAUAAUCAGGUAGGAUAUGCUCAGGAUAACUGAGCAGAAGGACUAGAAACCUGAGGAUCACCCAGGUAACUGGAAUAAUAAUAA [Same State NG1 - A3C, U17G Submission 6B]” were, in that order, 57.4 nM and 121 nM.
The like results for “AAUAGUGGCGUAGGAUAUCUGCGUACAUGAGGAUCACCCAUGUCUCCCAGCUGCUGAGCUGGGACAGAGAAGGGCGACCGCAUA [Digece]” were, in that order, 76.4 nM and 226 nM.
The like results for “ACCAAUGGGUGAGGAUAUGCACAGGAUCACCGUGUAGAAGGCAUCAGGUAGAAGGUGCAGAGGAUCACCCUGUAAGGAUAUAUC [pwkr2 ssNG1 DX.14]” were, in that order, 885 nM and 563 nM.
Turning to “AGGUAGGUCACAGGAUAUCCCGUGAGCUACAUGAGGAUCACCCAUGUAUCACGACGAAAGAAGAAGGAGAAGGGUGACCCUGAU [Atqula]”, the “apparent KD of MS2 coat protein” value with MS2 coat protein [1] (input ligand: FMN 200 uM) is 28.3 nM; with MS2 coat protein [1] (input ligand: none), 186 nM.
As for “GAUAAACAUGAGGAUCACCCAUGUAGAAAUAUGGGAGGAUAUACGAAGACGAAAGUCAAAGUAGAAGGCCUAAAAG [Mat - Same State 1 - Eli mod - D114]”, the “apparent KD of MS2 coat protein” value in the series with MS2 coat protein [2] worked out at 52.6 nM; with MS2 coat protein [3], 23.9 nM.
The like results for “GAUAUACAUGAGGAUCACCCAUGUUAGGUGGGUCAAGGAUAUUGAUAUAAAUAAAAAACUCGAGAAGGUGAAUAAA [JR_SS001_Sub020]” were, in that order, 153 nM and 298 nM.
With “GCAAAACAUGAGGAUCACCCAUGUCAACAAAAUCAAGGAUAUGAGCCAGCAAUGCCGGCAUCAGAAGGUGAACCUU [Enqule]”, the figures for the “apparent KD of MS2 coat protein” value in the series with MS2 coat protein [2] and in the series on MS2 coat protein [3] were 68.5 nM and 53.2 nM, respectively.
The matching figures for “GGAAAACAUGAGGAUCACCCAUGUGAAAACGUGGGAGGAUAUCGAUGGAAACCAUACUGUCGAGAAGGCCCAUGUC [EteRNA is fun!]”: 47.2 nM and 18.5 nM.
The like results for “GGAGUACAUGAGGAUCACCCAUGUUGGAACAAAGUAGGAUAUGUACAAUAUUAAAUAAAAACAGAAGGACUAAGAA [Gold Rush]” were, in that order, 37.1 nM and 23.3 nM.
The matching figures for “GGCCAACAUGAGGAUCACCCAUGUCGCCAAAAUCGAGGAUAUGGGUGCCAGCUCGGGCAGCCAGAAGGCGACAAAA [Qutiqumais]”: 224 nM and 55.1 nM.
As for “GGGAAGAAGAGAGAGGAUAUCCAAAGGAAAACAUGAGGAUCACCCAUGUAAAAGGUAGGAAAUUGGGAGAAGGCUCAAAAGAGGG [salish99-ss2-032]”, the “apparent KD of MS2 coat protein” value with MS2 coat protein [2] is 39.4 nM; with MS2 coat protein [3] it was 29 nM.
The like results for “GGGACCAGCGUCAAGGAUAUUCAUAUAUAAACAUGAGGAUCACCCAUGUAGGCCAGGAGGCCUUGGGAGAAGGUGAGUUGGCUCG [Xegedibe]” were, in that order, 249 nM and 40.5 nM.
The matching figures for “GGGAGGAAGAGAGAGGAUAUCCAAAGGAAAACAUGAGGAUCACCCAUGUAAAAGGUAGGAAAUUGGGAGAAGGCUCAAGAGAAAG [salish99-ss2-054]”: 51.6 nM and 29.8 nM.
The matching figures for “GGGAGGAAGAGAGAGGAUAUCCAAAGGAAAACAUGAGGAUCACCCAUGUAAAAGGUAGGAAAUUGGGAGAAGGCUCAAGAGAGGG [salish99-ss2-051]”: 28 nM and 23.6 nM.
As for “GGUACAUCUAGUUAGGAUAUCAGGUGUAAGACAUGAGGAUCACCCAUGUCCUAAGAACAGGUAACUGAGAAGGAACAGGGAGUCC [JR_SS002_Sub416]”, the figures for the “apparent KD of MS2 coat protein” value in the series with MS2 coat protein [2] and in the series with MS2 coat protein [3] were 133 nM and 64.6 nM, respectively.
For “GUAUAUAUAAGACAGGAUAUCCUAAAGUAAACAUGAGGAUCACCCAUGUAAAGAAAGAAACUCAUGGAGAAGGGUCAAUAUAUAC [Mat - Same State 2 - Tesla mod - D82]”, the “apparent KD of MS2 coat protein” value in the series with MS2 coat protein [2] turned out to be 27.1 nM; in the series on MS2 coat protein [3], 11.5 nM.
The matching figures for “GUGUAUAGAAUCGAGGAUAUCCUGUAAUGCACAUGAGGAUCACCCAUGUAAGAGCGAGAAUAAUGGGAGAAGGCGAGUUAUCGGU [JR_SS002_Sub1710]”: 46.1 nM and 27.5 nM.
The matching figures for “UAAAAACAUGAGGAUCACCCAUGUGAGAACAUGGGAGGAUAUACAAAGACGAAAGUCAAAGUAGAAGGCCUAAAAU [Mat - Same State 1 - Mod - D170]”: 15.9 nM and 75.1 nM.
For the sequence “UAAAAACAUGAGGAUCACCCAUGUGAGAACAUGGGAGGAUAUACGAAGACGAAAGUCGAAGUAGAAGGCCUAAAAU [Mat - Same State 1 - Mod - D172]”, the “apparent KD of MS2 coat protein” value in the series on MS2 coat protein [2] turned out to be 39.3 nM; with MS2 coat protein [3], 145 nM.
The like results for “UAUAAACAUGAGGAUCACCCAUGUAGAAAUAUGGGAGGAUAUACAAAGACGAAAGUCAAAGUAGAAGGCCUAAUAA [Mat - Same State 1 - Mod - D156]” were, in that order, 89.4 nM and 16.6 nM.
The like results for “UAUAGACAUGAGGAUCACCCAUGUAGAAUUAUGGGAGGAUAUACAAAGACGAGAGUCAGAGUAGAAGGCCUAGGAA [salish99-ss1-152]” were, in that order, 55.7 nM and 24 nM.
The matching figures for “UCCUUACAUGAGGAUCACCCAUGUCGCAGGAAUCAAGGAUAUGGGUCCGCAAUGCGGAAACCAGAAGGUGACAAAA [Edusquanon]”: 489 nM and 165 nM.
As for “UGAAAACAUGAGGAUCACCCAUGUAGAAAUAUGGGAGGAUAUACGAAGACGAAAGUCAAAGUAGAAGGCCUAAAUG [Mat - Same State 1 - Eli mod - D110]”, the “apparent KD of MS2 coat protein” value with MS2 coat protein [2] was 72.1 nM; in the series with MS2 coat protein [3] it was 27.6 nM.
With “UGAAGACAUGAGGAUCACCCAUGUGGGAUUAUGGGAGGAUAUACAAAGACGAGAGUCAGAGUAGAAGGCCUAGGAG [salish99-ss1-118(!)]”, the “apparent KD of MS2 coat protein” value in the series with MS2 coat protein [2] worked out at 67.9 nM; in the series on MS2 coat protein [3] it was 39.5 nM.
The matching figures for “UGAAGACAUGAGGAUCACCCAUGUGGGAUUAUGGGAGGAUAUACAAAGACGAGAGUCAGAGUAGAAGGCCUAGGAU [salish99-ss1-117(!)]”: 57.9 nM and 31.4 nM.
The like results for “UGGAAACAUGAGGAUCACCCAUGUAAAAGGUGGUCAGGAUAUGCGAAAAGAAAAAGAAAAGUAGAAGGGACAAGAA [Mod of Eli's Mod]” were, in that order, 67.8 nM and 65.9 nM.
On to “UGGAGACAUGAGGAUCACCCAUGUGAGAAGAGGCGAGGAUAUCGAAAGAAAGAAGAGAAACGAGAAGGCGCGAGUG [salish99-SS1-042]”, for which the “apparent KD of MS2 coat protein” value was 46.9 nM in the series with MS2 coat protein [2] and 40.3 nM in the series with MS2 coat protein [3].
The like results for “UUACAGCACAGGUAGGAUAUGUAGGGUGGUACAUGAGGAUCACCCAUGUAUCCACCCUUCGAAAGGCAGAAGGGCCUGUCGCUGC [Arsora]” were, in that order, 16.8 nM and 24.6 nM.
